Residue numbers refer to the chain shown, from its start. Numbers in names are those of the source.
B1: CyPPO19 A167C + I408W + F360I: variant of CyPPO19 PPO protein (SEQ ID NO: 1) (protein)
chain: MSEVDVAIVGGGLSGLSLAWRLQQSAPQYSVVLLEASDRLGGNITTQTAEGFVWELGPNSFAPTPALLQLIAEVGLQSELIRGDRHLPRYIYWRGQLYPLQPTRPLALATSNLLSPWGKVRAALGALGFVPPYLGSGDESVNSFFRRHLGQEVAERLVAPFVSGVYCGDPQQLSAAAAFRRIAQLEKLGGGLIAGALHLRRQQAPKPKPPTSVQMRPGELGSFKEGLAALPRAIAQQLKAPIHLQTPVQEITPDPKGGYLLRSGEQTWRARSVVLATPAYQTAELVAPFQPAIARVLATIPYPTVACVVLAYPAGLGRSVRPGFGVLIPRSQGIRTLGTIWSSCLFPQRTPAGWQVFTSIIGGATDPDLASLSEEAIVQQVQQDLNRLLDLPAAKARLLGMKVWRRAWPQYMVGYPEQWQQVTHALSQTPGLFLCSNYAEGVALGDRVEHGNRTAAAVAAYLSGGQP
modifications: Synthetic_PPO of Thermosynechococcus elongatus PKUAC-SCTE542 (comprising GenBank No. CP032152.1)
B2: CyPPO19 V305L + L327T + F360V: variant of CyPPO19 PPO protein (SEQ ID NO: 1) (protein)
chain: B1 chain with C167A, V305L, L327T, I360V, W408I
modifications: Synthetic_PPO of Thermosynechococcus elongatus PKUAC-SCTE542 (comprising GenBank No. CP032152.1)
B3: CyPPO19 A167I + I408W + F360V: variant of CyPPO19 PPO protein (SEQ ID NO: 1) (protein)
chain: B1 chain with C167I, I360V
modifications: Synthetic_PPO of Thermosynechococcus elongatus PKUAC-SCTE542 (comprising GenBank No. CP032152.1)
B4: CyPPO19 V305M + I408W + F360I: variant of CyPPO19 PPO protein (SEQ ID NO: 1) (protein)
chain: B1 chain with C167A, V305M
modifications: Synthetic_PPO of Thermosynechococcus elongatus PKUAC-SCTE542 (comprising GenBank No. CP032152.1)
B5: CyPPO19 V305L + I408R + F360L: variant of CyPPO19 PPO protein (SEQ ID NO: 1) (protein)
chain: B1 chain with C167A, V305L, I360L, W408R
modifications: Synthetic_PPO of Thermosynechococcus elongatus PKUAC-SCTE542 (comprising GenBank No. CP032152.1)
B6: CyPPO19 V305M + I408W + F360V: variant of CyPPO19 PPO protein (SEQ ID NO: 1) (protein)
chain: B1 chain with C167A, V305M, I360V
modifications: Synthetic_PPO of Thermosynechococcus elongatus PKUAC-SCTE542 (comprising GenBank No. CP032152.1)
B7: CyPPO19 V305M + L327T + F360I: variant of CyPPO19 PPO protein (SEQ ID NO: 1) (protein)
chain: B1 chain with C167A, V305M, L327T, W408I
modifications: Synthetic_PPO of Thermosynechococcus elongatus PKUAC-SCTE542 (comprising GenBank No. CP032152.1)
B8: CyPPO19 A167L + I408R + F360L: variant of CyPPO19 PPO protein (SEQ ID NO: 1) (protein)
chain: B1 chain with C167L, I360L, W408R
modifications: Synthetic_PPO of Thermosynechococcus elongatus PKUAC-SCTE542 (comprising GenBank No. CP032152.1)
B9: CyPPO19 V305M + L327T + F360T: variant of CyPPO19 PPO protein (SEQ ID NO: 1) (protein)
chain: B1 chain with C167A, V305M, L327T, I360T, W408I
modifications: Synthetic_PPO of Thermosynechococcus elongatus PKUAC-SCTE542 (comprising GenBank No. CP032152.1)

What follows are molecules tested on PPO-deficient BT3 E. coli (ΔPPO) (assay: PPO-inhibiting herbicide tolerance test of PPO variants in E. coli (growth on herbicide-containing LB agar)). Details: CyPPO19 variants in BT3 (ΔPPO) E. coli; LB agar with 0 to 2,000 μM herbicide, 37° C., dark, 16-20 hours.
Format: cell-based
Outline: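 Transformants were grown to OD600 0.5–1, adjusted to OD600=0.5 and spotted as 10-fold dilutions on LB agar with ampicillin (100 μg/mL) and 0 to 2,000 μM herbicide. Plates were kept at 37° C in the dark for 16-20 hours; growth was scored relative to wild type, one '+' per 10-fold resistance.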

Molecule | tolerance level relative to wild type, Carfentrazone | tolerance level relative to wild type, Flumioxazin | tolerance level relative to wild type, Fomesafen | tolerance level relative to wild type, Oxyfluorfen | tolerance level relative to wild type, Saflufenacil | tolerance level relative to wild type, Sulfentrazone | tolerance level relative to wild type, Tiafenacil
B1 | + (‘+’ per each 10-fold resistance) | +++++ (until ‘+++++’ as maximal resistance) | +++ (‘+’ per each 10-fold resistance) | +++ (‘+’ per each 10-fold resistance) | +++++ (until ‘+++++’ as maximal resistance) | +++++ (until ‘+++++’ as maximal resistance) | +++++ (until ‘+++++’ as maximal resistance)
B2 | + (‘+’ per each 10-fold resistance) | +++++ (until ‘+++++’ as maximal resistance) | + (‘+’ per each 10-fold resistance) | +++ (‘+’ per each 10-fold resistance) | +++ (‘+’ per each 10-fold resistance) | ++ (‘+’ per each 10-fold resistance) | +++++ (until ‘+++++’ as maximal resistance)
B3 | + (‘+’ per each 10-fold resistance) | ++++ (‘+’ per each 10-fold resistance) | + (‘+’ per each 10-fold resistance) | ++ (‘+’ per each 10-fold resistance) | ++++ (‘+’ per each 10-fold resistance) | +++ (‘+’ per each 10-fold resistance) | ++++ (‘+’ per each 10-fold resistance)
B4 | + (‘+’ per each 10-fold resistance) | +++++ (until ‘+++++’ as maximal resistance) | +++ (‘+’ per each 10-fold resistance) | +++ (‘+’ per each 10-fold resistance) | +++++ (until ‘+++++’ as maximal resistance) | +++ (‘+’ per each 10-fold resistance) | +++++ (until ‘+++++’ as maximal resistance)
B5 | + (‘+’ per each 10-fold resistance) | ++++ (‘+’ per each 10-fold resistance) | + (‘+’ per each 10-fold resistance) | ++ (‘+’ per each 10-fold resistance) | +++++ (until ‘+++++’ as maximal resistance) | ++ (‘+’ per each 10-fold resistance) | +++++ (until ‘+++++’ as maximal resistance)
B6 | + (‘+’ per each 10-fold resistance) | +++++ (until ‘+++++’ as maximal resistance) | +++ (‘+’ per each 10-fold resistance) | +++ (‘+’ per each 10-fold resistance) | +++++ (until ‘+++++’ as maximal resistance) | ++++ (‘+’ per each 10-fold resistance) | +++++ (until ‘+++++’ as maximal resistance)
B7 | + (‘+’ per each 10-fold resistance) | ++++ (‘+’ per each 10-fold resistance) | + (‘+’ per each 10-fold resistance) | ++ (‘+’ per each 10-fold resistance) | ++ (‘+’ per each 10-fold resistance) | ++ (‘+’ per each 10-fold resistance) | ++++ (‘+’ per each 10-fold resistance)
B8 | + (‘+’ per each 10-fold resistance) | ++++ (‘+’ per each 10-fold resistance) | +++ (‘+’ per each 10-fold resistance) | +++ (‘+’ per each 10-fold resistance) | ++++ (‘+’ per each 10-fold resistance) | ++++ (‘+’ per each 10-fold resistance) | ++++ (‘+’ per each 10-fold resistance)
B9 | + (‘+’ per each 10-fold resistance) | +++ (‘+’ per each 10-fold resistance) | ++ (‘+’ per each 10-fold resistance) | ++ (‘+’ per each 10-fold resistance) | +++ (‘+’ per each 10-fold resistance) | +++ (‘+’ per each 10-fold resistance) | +++ (‘+’ per each 10-fold resistance)
